In this experiment the target is N-terminal fragment of mouse GSDMA3 (GSDMA3-NT) (mouse) (UniProt Q5Y4Y6). The experiment can be described thus: cryo-EM structure.

Values joined by “and” are separate entries in the source; they are usually repeats but may differ in a detail not shown here. Identical values can stand only once.

Our source for the stoichiometry N values is article PMC6007975.

In general, stoichiometry N refers to a count of units in the complex or per binding partner. Turning to “N-terminal fragment of mouse GSDMA3 (GSDMA3-NT) (from UniProt Q5Y4Y6 1-262) (domain or fragment)”, the stoichiometry N is 26 and 28.
